In paper PMC4922050, “Stress-induced nuclear translocation of CDK5 suppresses neuronal death by downregulating ERK activation via VRK3 phosphorylation” (Scientific Reports, 2016):
Changes are numbered by the printed parent chain.

Key:
Assay in all cases: pull-down; GST-VRK3 (wild type, S108A, S108E) incubated overnight with recombinant VHR or recombinant phospho-ERK2 in Triton lysis buffer with 1 mM DTT and 10% glycerol, then glutathione-sepharose 4B beads at 4 °C for 1 h
Conditions in all cases: both partners purified
[1] = target: T1, GST-VRK3^S108E (human, UniProt Q8IV63 1-474, S108E)
T1 construct: vaccinia-related kinase 3 (VRK3), human; S108E (phosphomimetic) made by site-directed mutagenesis in pGEX4T-3; pGEX4T-3 vector; also called S108E mutant VRK3; phosphomimetic mutant of VRK3; source: E. coli BL21 (DE3) pLysS, purified (glutathione-sepharose 4B)
T1 sequence (looked up): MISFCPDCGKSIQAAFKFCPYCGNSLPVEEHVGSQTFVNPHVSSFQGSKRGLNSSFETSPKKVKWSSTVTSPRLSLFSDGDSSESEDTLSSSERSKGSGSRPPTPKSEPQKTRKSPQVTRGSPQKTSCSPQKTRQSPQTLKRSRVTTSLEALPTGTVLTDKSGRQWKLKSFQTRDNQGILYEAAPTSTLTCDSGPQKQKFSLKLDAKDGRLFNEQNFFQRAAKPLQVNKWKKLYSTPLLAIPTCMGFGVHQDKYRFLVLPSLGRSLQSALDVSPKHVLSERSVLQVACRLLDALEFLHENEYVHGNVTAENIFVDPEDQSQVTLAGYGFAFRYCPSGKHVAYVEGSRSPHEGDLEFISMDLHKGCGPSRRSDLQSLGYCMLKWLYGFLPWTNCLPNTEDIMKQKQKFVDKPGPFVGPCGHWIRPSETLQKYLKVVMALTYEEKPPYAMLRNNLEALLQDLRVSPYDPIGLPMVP

[2] = target: T2, GST-VRK3^S108A (human, UniProt Q8IV63 1-474, S108A)
T2 construct: vaccinia-related kinase 3 (VRK3), human; S108A made by site-directed mutagenesis in pGEX4T-3; pGEX4T-3 vector; also called S108A mutant VRK3; source: E. coli BL21 (DE3) pLysS, purified (glutathione-sepharose 4B)
T2 sequence (looked up): T1 sequence (looked up) with E108A

[3] = target: T3, GST-tagged recombinant full-length VRK3 (vaccinia-related kinase 3), wild type (human, UniProt Q8IV63 1-474)
T3 construct: vaccinia-related kinase 3 (VRK3), human; coding region amplified by RT-PCR from mRNA of human cell lines and cloned into pGEX4T-3; full length (fragment F3 ends at amino acid 474); pGEX4T-3 vector; also called GST-VRK3; VRK3^WT; source: E. coli BL21 (DE3) pLysS, purified (glutathione-sepharose 4B)
T3 sequence (looked up): T1 sequence (looked up) with E108S

binding result [1]: binds
binding result [2]: binds
binding result [3]: binds
B1: recombinant VHR (vaccinia H1-related phosphatase) (enzyme, human, UniProt P51452 1-185, looked up)
chain: MSGSFELSVQDLNDLLSDGSGCYSLPSQPCNEVTPRIYVGNASVAQDIPKLQKLGITHVLNAAEGRSFMHVNTNANFYKDSGITYLGIKANDTQEFNLSAYFERAADFIDQALAQKNGRVLVHCREGYSRSPTLVIAYLMMRQKMDVKSALSIVRQNREIGPNDGFLAQLCQLNDRLAKEGKLKP
notes: vaccinia H1-related (VHR) phosphatase; coding region amplified by RT-PCR from mRNA of human cell lines (SH-SY5Y, HEK293A, HeLa); source: E. coli BL21 (DE3) pLysS, purified
